Settings in all cases: 50 mM Tris-HCl pH 8.0, 25°C
Substrate in data set [1]: Oc1ccc(Cl)c(Cl)c1O
As to the kind of experiment: purified protein.

Substrate in data set [2]: Oc1ccc(Cl)cc1O
As to the kind of experiment: purified protein.

Substrate in data set [3]: Oc1cccc(Cl)c1O
As to the kind of experiment: purified protein.

Substrate in data set [4]: Cc1ccc(O)c(O)c1
Nature of the data set: spectrophotometric ring-cleavage assay, A260. It is filed as biochemical, Diaphorobacter sp. JS3051.

Substrate in data set [5]: Cc1cccc(O)c1O
As to the kind of experiment: spectrophotometric ring-cleavage assay, A260. It is filed as biochemical, Diaphorobacter sp. JS3051.

Substrate in data set [6]: Oc1ccccc1O
Nature of the data set: spectrophotometric ring-cleavage assay, A260. It is filed as biochemical, Diaphorobacter sp. JS3051.

B1: H6-DccA (Diaphorobacter sp. JS3051) (protein)
chain: MDKRVAEVAGAIVEAVRKILLDKRVTEAEYRAGVDYLTEVAQTRETAVLLDAFLNSTIIEGKAQRSRTSAPGMQGPYFLEGAPVVEGVLKTYDTDDHKPLIIRGTVRSDTGELLAGAVIDVWHSTPDGLYSGIHDNIPMDYYRGKLVTDSQGNFRVRTTMPVPYQIPYEGPTGRLLGHLGSHTWRPAHVHFKVRKDGFEPLTTQYYFEGGKWVDDDCCHGVTPDLITPETIEDGVRVMTLDFVIEREQAEQRKSATETVA
notes: full-length gene in pET-28a(+) (NdeI/BamHI), N-terminal 6xHis tag, purified from E. coli BL21(DE3)
Take B1: the Km in the data set “purified protein [1]” was 0.48 ± 0.10 µM; in the data set “purified protein [2]”, 0.73 ± 0.06 µM; in “purified protein [3]”, 2.58 ± 0.38 µM; in data set [4] it was 10.40 ± 1.35 µM; in data set [5], 12.85 ± 1.52 µM; in data set [6], 9.06 ± 0.88 µM. The Vmax came to 0.43 µM/min in the data set “purified protein [1]”; 0.78 µM/min in “purified protein [2]”; 0.42 µM/min in “purified protein [3]”; 4.63 µM/min in data set [4]; 0.63 µM/min in data set [5]; 0.44 µM/min in data set [6]. In addition, the kcat in the data set “purified protein [1]” came to 0.355 s⁻¹; in the data set “purified protein [2]” it was 0.653 s⁻¹; in the data set “purified protein [3]” it was 0.35 s⁻¹; in data set [4], 3.86 s⁻¹; in data set [5], 0.525 s⁻¹; in data set [6], 0.363 s⁻¹. For the same protein, the kcat/Km in “purified protein [1]” was found to be 737000 M⁻¹ s⁻¹; in “purified protein [2]” it was 893000 M⁻¹ s⁻¹; in “purified protein [3]”, 135000 M⁻¹ s⁻¹; in data set [4], 372000 M⁻¹ s⁻¹; in data set [5], 41700 M⁻¹ s⁻¹; in data set [6] it was 40000 M⁻¹ s⁻¹.

Source of the values: PMC8406286, “A Recently Assembled Degradation Pathway for 2,3-Dichloronitrobenzene in Diaphorobacter sp. Strain JS3051” (mBio, 2021).
